The text below walks through data of the supplement of paper PMC5998384.

For series [1], the system named is HeLa Kyoto. The experiment in a line: solubility in G1/S (NP-40 vs SDS abundance) (log2 ratio); higher = more soluble. The conditions noted are these: cell cycle stage: G1/S.
Series [2] deals with HeLa Kyoto. The experiment in a line: solubility change mitosis vs G1/S (difference of NP-40 vs SDS log2 ratios) (log2 ratio difference); higher = more soluble in mitosis.
The subject of series [3] is HeLa Kyoto. Kind of series: thermal stability score vs G1/S (z-score of summed log2 fold changes over temperatures); higher = more thermally stable than in G1/S.
Setting [4] is: cell cycle stage: early G1 (4.5 h after nocodazole release).
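For solubility change mitosis vs G1/S (difference of NP-40 vs SDS log2 ratios) in this document: synchronized HeLa Kyoto cells (double thymidine block for G1/S, nocodazole release for mitosis), protein amounts in NP-40 versus SDS lysates quantified by mass spectrometry, three biological replicates.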
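For solubility in G1/S (NP-40 vs SDS abundance) in this document: HeLa Kyoto cells arrested at G1/S by double thymidine block, proteins quantified by TMT10plex mass spectrometry in mild NP-40 versus SDS extracts, three biological replicates.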
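For thermal stability score vs G1/S (z-score of summed log2 fold changes over temperatures) in this document: synchronized HeLa Kyoto cells, proteins quantified by TMT10plex mass spectrometry, three biological replicates, mitosis taken 0.5 h after nocodazole release, G1/S directly after double thymidine block.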

On to “MSQGSPGDWAPLDPTPGPPASPNPFVHELHLSRLQRVKFCLLGALLAPIRVLLAFIVLFLLWPFAWLQVAGLSEEQLQEPITGWRKTVCHNGVLGLSRLLFFLLGFLRIRVRGQRASRLQAPVLVAAPHSTFFDPIVLLPCDLPKVVSRAENLSVPVIGALLRFNQAILVSRHDPASRRRVVEEVRRRATSGGKWPQVLFFPEGTCSNKKALLKFKPGAFIAGVPVQPVLIRYPNSLDTTSWAWRGPGVLKVLWLTASQPCSIVDVEFLPVYHPSPEESRDPTLYANNVQRVMAQALGIPATECEFVGSLPVIVVGRLKVALEPQLWELGKVLRKAGLSAGYVDAGAEPGRSRMISQEEFARQLQLSDPQTVAGAFGYFQQDTKGLVDFRDVALALAALDGGRSLEELTRLAFELFAEEQAEGPNRLLYKDGFSTILHLLLGSPHPAATALHAELCQAGSSQGLSLCQFQNFSLHDPLYGKLFSTYLRPPHTSRGTSQTPNASSPGNPTALANGTVQAPKQKGD [LPCAT4]”, for which, in series [1], the “solubility in G1/S (log2)” value is -0.0461. For the same substance, the “solubility change mitosis (log2)” value in series [2] was -0.122. In addition, the thermal stability score in series [3] (setting [4]) was 0.358; in series [3] (cell cycle stage: mitosis) it was 0.234.

Regarding “MNNKFDALKDDDSGDHDQNEENSTQKDGEKEKTERDKNQSSSKRKAVVPGPAEHPLQYNYTFWYSRRTPGRPTSSQSYEQNIKQIGTFASVEQFWRFYSHMVRPGDLTGHSDFHLFKEGIKPMWEDDANKNGGKWIIRLRKGLASRCWENLILAMLGEQFMVGEEICGAVVSVRFQEDIISIWNKTASDQATTARIRDTLRRVLNLPPNTIMEYKTHTDSIKMPGRLGPQRLLFQNLWKPRLNVP [EIF4E2]”, the “solubility in G1/S (log2)” value in series [1] is 0.114. Further, the “solubility change mitosis (log2)” value in series [2] stood at 0.000807. Besides, the thermal stability score in series [3] (setting [4]) is -1.02; in series [3] (cell cycle stage: mitosis) it was -0.941.

Regarding PTEN, in series [1], the “solubility in G1/S (log2)” value is -0.27. The “solubility change mitosis (log2)” value in series [2] worked out at 0.174. Also, the thermal stability score in series [3] (setting [4]) is -0.257; in series [3] (cell cycle stage: mitosis) it was 0.0266.

In the case of “MEGLLTRCRALPALATCSRQLSGYVPCRFHHCAPRRGRRLLLSRVFQPQNLREDRVLSLQDKSDDLTCKSQRLMLQVGLIYPASPGCYHLLPYTVRAMEKLVRVIDQEMQAIGGQKVNMPSLSPAELWQATNRWDLMGKELLRLRDRHGKEYCLGPTHEEAITALIASQKKLSYKQLPFLLYQVTRKFRDEPRPRFGLLRGREFYMKDMYTFDSSPEAAQQTYSLVCDAYCSLFNKLGLPFVKVQADVGTIGGTVSHEFQLPVDIGEDRLAICPRCSFSANMETLDLSQMNCPACQGPLTKTKGIEVGHTFYLGTKYSSIFNAQFTNVCGKPTLAEMGCYGLGVTRILAAAIEVLSTEDCVRWPSLLAPYQACLIPPKKGSKEQAASELIGQLYDHITEAVPQLHGEVLLDDRTHLTIGNRLKDANKFGYPFVIIAGKRALEDPAHFEVWCQNTGEVAFLTKDGVMDLLTPVQTV [PARS2]”, the “solubility in G1/S (log2)” value in series [1] is -0.0434. Besides, the “solubility change mitosis (log2)” value in series [2] is -0.176. The thermal stability score in series [3] (setting [4]) was -2.04; in series [3] (cell cycle stage: mitosis), -2.68.

For “MAAVAAEAAATAASPGEGGAGEAEPEMEPIPGSEAGTDPLPVTATEASVPDGETDGQQSAPQADEPPLPPPPPPPGELARSPEAVGPELEAEEKLSVRVAESAAAAPQGGPELPPSPASPPEQPPAPEEREEPPLPQPVAPALVPPAGGDSTVSQLIPGSEVRVTLDHIIEDALVVSFRFGEKLFSGVLMDLSKRFGPHGIPVTVFPKREYKDKPEAMPLQSNTFQEGTEVKCEANGAVPDDPSPVPHPELSLAESLWTSKPPPLFHEGAPYPPPLFIRDTYNQSIPQPPPRKIKRPKRKMYREEPTSIMNAIKLRPRQVLCDKCKNSVVAEKKEIRKGSSATDSSKYEDKKRRNESVTTVNKKLKTDHKVDGKNQNESQKRNAVVKVSNIAHSRGRVVKVSAQANTSKAQLSTKKVLQSKNMDHAKAREVLKIAKEKAQKKQNETSTSKNAHSKVHFTRRYQNPSSGSLPPRVRLKPQRYRNEENDSSLKTGLEKMRSGKMAPKPQSRCTSTRSAGEAPSENQSPSKGPEEASSEVQDTNEVHVPGDQDEPQTLGKKGSKNNISVYMTLNQKKSDSSSASVCSIDSTDDLKSSNSECSSSESFDFPPGSMHAPSTSSTSSSSKEEKKLSNSLKMKVFSKNVSKCVTPDGRTICVGDIVWAKIYGFPWWPARILTITVSRKDNGLLVRQEARISWFGSPTTSFLALSQLSPFLENFQSRFNKKRKGLYRKAITEAAKAAKQLTPEVRALLTQFET [PWWP2A]”, the “solubility in G1/S (log2)” value in series [1] was -0.7. For the same substance, the “solubility change mitosis (log2)” value in series [2] came to 0.43. The thermal stability score is 1.31 in series [3] (setting [4]) and 1.07 in series [3] (cell cycle stage: mitosis).

For the substance “MASDASHALEAALEQMDGIIAGTKTGADLSDGTCEPGLASPASYMNPFPVLHLIEDLRLALEMLELPQERAALLSQIPGPTAAYIKEWFEESLSQVNHHSAASNETYQERLARLEGDKESLILQVSVLTDQVEAQGEKIRDLEVCLEGHQVKLNAAEEMLQQELLSRTSLETQKLDLMTEVSELKLKLVGMEKEQREQEEKQRKAEELLQELRHLKIKVEELENERNQYEWKLKATKAEVAQLQEQVALKDAEIERLHSQLSRTAALHSESHTERDQEIQRLKMGMETLLLANEDKDRRIEELTGLLNQYRKVKEIVMVTQGPSERTLSINEEEPEGGFSKWNATNKDPEELFKQEMPPRCSSPTVGPPPLPQKSLETRAQKKLSCSLEDLRSESVDKCMDGNQPFPVLEPKDSPFLAEHKYPTLPGKLSGATPNGEAAKSPPTICQPDATGSSLLRLRDTESGWDDTAVVNDLSSTSSGTESGPQSPLTPDGKRNPKGIKKFWGKIRRTQSGNFYTDTLGMAEFRRGGLRATAGPRLSRTRDSKGQKSDANAPFAQWSTERVCAWLEDFGLAQYVIFARQWVSSGHTLLTATPQDMEKELGIKHPLHRKKLVLAVKAINTKQEEKSALLDHIWVTRWLDDIGLPQYKDQFHESRVDRRMLQYLTVNDLLFLKVTSQLHHLSIKCAIHVLHVNKFNPHCLHRRPADESNLSPSEVVQWSNHRVMEWLRSVDLAEYAPNLRGSGVHGGLIILEPRFTGDTLAMLLNIPPQKTLLRRHLTTKFNALIGPEAEQEKREKMASPAYTPLTTTAKVRPRKLGFSHFGNIRKKKFDESTDYICPMEPSDGVSDSHRVYSGYRGLSPLDAPELDGLDQVGQIS [PPFIBP2]”, the “solubility in G1/S (log2)” value in series [1] was 0.218. The “solubility change mitosis (log2)” value in series [2] was -0.265. The thermal stability score in series [3] (setting [4]) was found to be 0.328; in series [3] (cell cycle stage: mitosis) it was 0.498.

Turning to “MKEEAFLRRRFSLCPPSSTPQKVDPRKLTRNLLLSGDNELYPLSPGKDMEPNGPSLPRDEGPPTPSSATKVPPAEYRLCNGSDKECVSPTARVTKKETLKAQKENYRQEKKRATRQLLSALTDPSVVIMADSLKIRGTLKSWTKLWCVLKPGVLLIYKTPKVGQWVGTVLLHCCELIERPSKKDGFCFKLFHPLDQSVWAVKGPKGESVGSITQPLPSSYLIFRAASESDGRCWLDALELALRCSSLLRLGTCKPGRDGEPGTSPDASPSSLCGLPASATVHPDQDLFPLNGSSLENDAFSDKSERENPEESDTETQDHSRKTESGSDQSETPGAPVRRGTTYVEQVQEELGELGEASQVETVSEENKSLMWTLLKQLRPGMDLSRVVLPTFVLEPRSFLNKLSDYYYHADLLSRAAVEEDAYSRMKLVLRWYLSGFYKKPKGIKKPYNPILGETFRCCWFHPQTDSRTFYIAEQVSHHPPVSAFHVSNRKDGFCISGSITAKSRFYGNSLSALLDGKATLTFLNRAEDYTLTMPYAHCKGILYGTMTLELGGKVTIECAKNNFQAQLEFKLKPFFGGSTSINQISGKITSGEEVLASLSGHWDRDVFIKEEGSGSSALFWTPSGEVRRQRLRQHTVPLEEQTELESERLWQHVTRAISKGDQHRATQEKFALEEAQRQRARERQESLMPWKPQLFHLDPITQEWHYRYEDHSPWDPLKDIAQFEQDGILRTLQQEAVARQTTFLGSPGPRHERSGPDQRLRKASDQPSGHSQATESSGSTPESCPELSDEEQDGDFVPGGESPCPRCRKEARRLQALHEAILSIREAQQELHRHLSAMLSSTARAAQAPTPGLLQSPRSWFLLCVFLACQLFINHILK [OSBPL5]”, the “solubility in G1/S (log2)” value in series [1] was -0.0107. In series [2], the “solubility change mitosis (log2)” value amounted to 0.12. In addition, the thermal stability score in series [3] (setting [4]) worked out at 0.206; in series [3] (cell cycle stage: mitosis), 0.353.

On to “MDLHRAAFKMENSSYLPNPLASPALMVLASTAEASRDASIPCQQPRPFGVPVSVDKDVHIPFTNGSYTFASMYHRQGGVPGTFANRDFPPSLLHLHPQFAPPNLDCTPISMLNHSGVGAFRPFASTEDRESYQSAFTPAKRLKNCHDTESPHLRFSDADGKEYDFGTQLPSSSPGSLKVDDTGKKIFAVSGLISDREASSSPEDRNDRCKKKAAALFDSQAPICPICQVLLRPSELQEHMEQELEQLAQLPSSKNSLLKDAMAPGTPKSLLLSASIKREGESPTASPHSSATDDLHHSDRYQTFLRVRANRQTRLNARIGKMKRRKQDEGQREGSCMAEDDAVDIEHENNNRFEEYEWCGQKRIRATTLLEGGFRGSGFIMCSGKENPDSDADLDVDGDDTLEYGKPQYTEADVIPCTGEEPGEAKEREALRGAVLNGGPPSTRITPEFSKWASDEMPSTSNGESSKQEAMQKTCKNSDIEKITEDSAVTTFEALKARVRELERQLSRGDRYKCLICMDSYSMPLTSIQCWHVHCEECWLRTLGAKKLCPQCNTITAPGDLRRIYL [RNF220]”, for which, in series [1], the “solubility in G1/S (log2)” value came out at 0.298. For the same substance, the “solubility change mitosis (log2)” value in series [2] is -0.0624. Moreover, the thermal stability score in series [3] (setting [4]) was 0.0151; in series [3] (cell cycle stage: mitosis), -0.144.
